# Measurements from patent US20210371461.
# T1: MePEG2-IEGR (TFA salt)
# T1 chain: IEGR
# B1: factor XIIa (protein)
# chain: IPPWEAPKEHKYKAEEHTVVLTVTGEPCHFPFQYHRQLYHKCTHKGRPGPQPWCATTPNFDQDQRWGYCLEPKKVKDHCSKHSPCQKGGTCVNMPSGPHCLCPQHLTGNHCQKEKCFEPQLLRFFHKNEIWYRTEQAAVARCQCKGPDAHCQRLASQACRTNPCLHGGRCLEVEGHRLCHCPVGYTGAFCDVDTKASCYDGRGLSYRGLARTTLSGAPCQPWASEATYRNVTAEQARNWGLGGHAFCRNPDNDIRPWCFVLNRDRLSWEYCDLAQCQTPTQAAPPTPVSPRLHVPLMPAQPAPPKPQPTTRTPPQSQTPGALPAKREQPPSLTRNGPLSCGQRLRKSLSSMTRVVGGLVALRGAHPYIAALYWGHSFCAGSLIAPCWVLTAAHCLQDRPAPEDLTVVLGQERRNHSCEPCQTLAVRSYRLHEAFSPVSYQHDLALLRLQEDADGSCALLSPYVQPVCLPSGAARPSETTLCQVAGWGHQFEGAEEYASFLQEAQVPFLSLERCSAPDVHGSSILPGMLCAGFLEGGTDACQGDSGGPLVCEDQAAERRLTLQGIISWGSGCGDRNKPGVYTDVAYYLAWIREHTVS
# B2: tissue-type plasminogen activator (protein)
# chain: SYQVICRDEKTQMIYQQHQSWLRPVLRSNRVEYCWCNSGRAQCHSVPVKSCSEPRCFNGGTCQQALYFSDFVCQCPEGFAGKCCEIDTRATCYEDQGISYRGTWSTAESGAECTNWNSSALAQKPYSGRRPDAIRLGLGNHNYCRNPDRDSKPWCYVFKAGKYSSEFCSTPACSEGNSDCYFGNGSAYRGTHSLTESGASCLPWNSMILIGKVYTAQNPSAQALGLGKHNYCRNPDGDAKPWCHVLKNRRLTWEYCDVPSCSTCGLRQYSQPQFRIKGGLFADIASHPWQAAIFAKHRRSPGERFLCGGILISSCWILSAAHCFQERFPPHHLTVILGRTYRVVPGEEEQKFEVEKYIVHKEFDDDTYDNDIALLQLKSDSSRCAQESSVVRTVCLPPADLQLPDWTECELSGYGKHEALSPFYSERLKEAHVRLYPSSRCTSQHLLNRTVTDNMLCAGDTRSGGPQANLHDACQGDSGGPLVCLNDGRMTLVGIISWGLGCGQKDVPGVYTKVTNYLDWIRDNMRP
# B3: plasmin (protein)
# chain: KVYLSECKTGNGKNYRGTMSKTKNGITCQKWSSTSPHRPRFSPATHPSEGLEENYCRNPDNDPQGPWCYTTDPEKRYDYCDILECEEECMHCSGENYDGKISKTMSGLECQAWDSQSPHAHGYIPSKFPNKNLKKNYCRNPDRELRPWCFTTDPNKRWELCDIPRCTTPPPSSGPTYQCLKGTGENYRGNVAVTVSGHTCQHWSAQTPHTHNRTPENFPCKNLDENYCRNPDGKRAPWCHTTNSQVRWEYCKIPSCDSSPVSTEQLAPTAPPELTPVVQDCYHGDGQSYRGTSSTTTTGKKCQSWSSMTPHRHQKTPENYPNAGLTMNYCRNPDADKGPWCFTTDPSVRWEYCNLKKCSGTEASVVAPPPVVLLPDVETPSEEDCMFGNGKGYRGKRATTVTGTPCQDWAAQEPHRHSIFTPETNPRAGLEKNYCRNPDGDVGGPWCYTTNPRKLYDYCDVPQCAAPSFDCGKPQVEPKKCPGRVVGGCVAHPHSWPWQVSLRTRFGMHFCGGTLISPEWVLTAAHCLEKSPRPSSYKVILGAHQEVNLEPHVQEIEVSRLFLEPTRKDIALLKLSSPAVITDKVIPACLPSPNYVVADRTECFITGWGETQGTFGAGLLKEAQLPVIENKVCNRYEFLNGRVQSTELCAGHLAGGTDSCQGDSGGPLVCFEKDKYILQGVTSWGLGCARPNKPGVYVRVSRFVTWIEGVMRNN
# Target: T1, MePEG2-IEGR (TFA salt)
protein,measurement,value
B1,"luminescence signal (RLU) from substrate cleavage, 145 nM enzyme",145 nM FXlla yielded ˜500 RLU
B2,"luminescence signal (RLU) from substrate cleavage, 193 IU/mL enzyme",193 IU/mL tPA yielded ˜6.000 RLU
B3,"luminescence signal (RLU) from substrate cleavage, 8 nM enzyme",8 nM plasmin yielded ˜8.000 RLU
